# Test system: Escherichia coli TOP10
# Experiment: shrunken log2 fold change of peptide-encoding DNA abundance (4.5 h post-induction vs induction); higher = less antimicrobial activity (less host growth inhibition)
# Conditions: time post-induction: 4.5 h; library: site-saturation at positions 5, 18, 19, 20
# 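Note: peptides expressed intracellularly from a pBAD plasmid library in pooled LB shake-flask culture, induced with 0.3% L-arabinose, DNA abundance read by NGS, three biological replicates, DESeq2 with apeglm shrinkage.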
row,Sequence,shrunken log2 fold change
1,RRIRGRPPRLPRPRPRPGLAPRP,1.25
2,RRIRFRPPRLPRPRPRPFQCPRP,-0.0784
3,RRIRQRPPRLPRPRPRPIWWPRP,0.127
4,RRIRKRPPRLPRPRPRPCCEPRP,0.638
5,RRIRIRPPRLPRPRPRPTMRPRP,0.553
6,RRIRMRPPRLPRPRPRPFLPPRP,-0.346
7,RRIRRRPPRLPRPRPRPHHNPRP,-0.393
8,RRIRDRPPRLPRPRPRPHIAPRP,0.0931
9,RRIRMRPPRLPRPRPRPAVQPRP,0.0778
10,RRIRYRPPRLPRPRPRPFSMPRP,-0.00208
11,RRIRNRPPRLPRPRPRPMASPRP,-0.0269
12,RRIRMRPPRLPRPRPRPSRRPRP,0.189
13,RRIRNRPPRLPRPRPRPIPNPRP,-0.428
14,RRIRDRPPRLPRPRPRPRIDPRP,0.0784
15,RRIRLRPPRLPRPRPRPDIVPRP,-0.0115
16,RRIRHRPPRLPRPRPRPKECPRP,-0.212
17,RRIRRRPPRLPRPRPRPMQYPRP,-0.126
18,RRIRDRPPRLPRPRPRPSPCPRP,-0.0819
19,RRIRDRPPRLPRPRPRPQGLPRP,0.0467
20,RRIRWRPPRLPRPRPRPDMHPRP,0.199
21,RRIRTRPPRLPRPRPRPPCWPRP,0.171
22,RRIRYRPPRLPRPRPRPTMYPRP,-0.33

row,Sequence,shrunken log2 fold change
1,RRIRNRPPRLPRPRPRPLECPRP,-0.311
2,RRIRFRPPRLPRPRPRPQYKPRP,-0.755
3,RRIRRRPPRLPRPRPRPFHIPRP,-0.0758
4,RRIRLRPPRLPRPRPRPVERPRP,-0.0146
5,RRIRGRPPRLPRPRPRPWNDPRP,-0.222
6,RRIRYRPPRLPRPRPRPTLKPRP,-0.283
7,RRIRGRPPRLPRPRPRPRYHPRP,-0.0711
8,RRIRNRPPRLPRPRPRPEMSPRP,-0.0389
9,RRIRGRPPRLPRPRPRPTGCPRP,0.562
10,RRIRQRPPRLPRPRPRPLYPPRP,-0.228
11,RRIRNRPPRLPRPRPRPNYNPRP,-1.07
12,RRIRVRPPRLPRPRPRPETHPRP,-0.0797
13,RRIRERPPRLPRPRPRPSTYPRP,-0.263
14,RRIRVRPPRLPRPRPRPFLEPRP,0.0733
15,RRIRTRPPRLPRPRPRPHPCPRP,-0.339
16,RRIRIRPPRLPRPRPRPTYTPRP,-0.405
17,RRIRFRPPRLPRPRPRPLFLPRP,-0.478
18,RRIRSRPPRLPRPRPRPTECPRP,-0.00271
19,RRIRKRPPRLPRPRPRPCSSPRP,-0.0581
20,RRIRPRPPRLPRPRPRPSYAPRP,-0.106
21,RRIRARPPRLPRPRPRPPYSPRP,-0.0108
22,RRIRRRPPRLPRPRPRPIIHPRP,-0.584

row,Sequence,shrunken log2 fold change
1,RRIRTRPPRLPRPRPRPMNPPRP,-0.141
2,RRIRSRPPRLPRPRPRPMAWPRP,-0.00175
3,RRIRKRPPRLPRPRPRPNIFPRP,-0.021
4,RRIRYRPPRLPRPRPRPPWIPRP,-0.447
5,RRIRDRPPRLPRPRPRPDWKPRP,0.0755
6,RRIRPRPPRLPRPRPRPFDTPRP,-0.126
7,RRIRGRPPRLPRPRPRPPCVPRP,1.15
8,RRIRFRPPRLPRPRPRPPTEPRP,0.438
9,RRIRGRPPRLPRPRPRPRMWPRP,0.223
10,RRIRKRPPRLPRPRPRPCRAPRP,0.57
11,RRIRPRPPRLPRPRPRPDKFPRP,-0.233
12,RRIRWRPPRLPRPRPRPDWPPRP,0.332
13,RRIRRRPPRLPRPRPRPRFHPRP,0.0555
14,RRIRIRPPRLPRPRPRPGPEPRP,0.342
15,RRIRGRPPRLPRPRPRPLFHPRP,0.134
16,RRIRARPPRLPRPRPRPPAAPRP,1.12
17,RRIRLRPPRLPRPRPRPFSKPRP,-0.456
18,RRIRQRPPRLPRPRPRPSSLPRP,-0.728
19,RRIRDRPPRLPRPRPRPHMKPRP,-0.467
20,RRIRHRPPRLPRPRPRPEYGPRP,-0.0913
21,RRIRNRPPRLPRPRPRPGAEPRP,0.374
22,RRIRGRPPRLPRPRPRPSAIPRP,1.3

row,Sequence,shrunken log2 fold change
1,RRIRERPPRLPRPRPRPCPRPRP,-0.021
2,RRIRARPPRLPRPRPRPPGSPRP,0.759
3,RRIRRRPPRLPRPRPRPYKDPRP,-0.249
4,RRIRRRPPRLPRPRPRPAERPRP,0.606
5,RRIRDRPPRLPRPRPRPNFEPRP,0.282
6,RRIRMRPPRLPRPRPRPGDKPRP,0.9
7,RRIRHRPPRLPRPRPRPINHPRP,-0.97
8,RRIRIRPPRLPRPRPRPQQPPRP,0.349
9,RRIRFRPPRLPRPRPRPWRNPRP,-0.133
10,RRIRSRPPRLPRPRPRPWDSPRP,-0.729
11,RRIRRRPPRLPRPRPRPHPMPRP,0.144
12,RRIRWRPPRLPRPRPRPLDQPRP,-0.0549
13,RRIRKRPPRLPRPRPRPIVEPRP,0.00111
14,RRIRYRPPRLPRPRPRPVLHPRP,-0.5
15,RRIRHRPPRLPRPRPRPENPPRP,-0.277
16,RRIRCRPPRLPRPRPRPGWMPRP,0.0485
17,RRIRNRPPRLPRPRPRPDDWPRP,0.221
18,RRIRRRPPRLPRPRPRPRHWPRP,0.551
19,RRIRLRPPRLPRPRPRPFHSPRP,-0.177
20,RRIRCRPPRLPRPRPRPTKKPRP,-0.000922
21,RRIRTRPPRLPRPRPRPNQPPRP,0.0619
22,RRIRCRPPRLPRPRPRPPGQPRP,0.494

row,Sequence,shrunken log2 fold change
1,RRIRRRPPRLPRPRPRPIMAPRP,0.107
2,RRIRNRPPRLPRPRPRPLMYPRP,-0.158
3,RRIRCRPPRLPRPRPRPMVMPRP,0.0583
4,RRIRYRPPRLPRPRPRPHNRPRP,-0.245
5,RRIRQRPPRLPRPRPRPSYTPRP,-1.34
6,RRIRGRPPRLPRPRPRPYRQPRP,-0.401
7,RRIRQRPPRLPRPRPRPHIMPRP,-0.669
8,RRIRHRPPRLPRPRPRPHRDPRP,-0.263
9,RRIRNRPPRLPRPRPRPQTCPRP,0.0139
10,RRIRQRPPRLPRPRPRPPINPRP,-0.00134
11,RRIRTRPPRLPRPRPRPEVHPRP,0.00869
12,RRIRRRPPRLPRPRPRPMVDPRP,0.0808
13,RRIRFRPPRLPRPRPRPWATPRP,0.0109
14,RRIRDRPPRLPRPRPRPFIYPRP,-0.115
15,RRIRYRPPRLPRPRPRPGNAPRP,0.0744
16,RRIRWRPPRLPRPRPRPNHAPRP,0.601
17,RRIRKRPPRLPRPRPRPGRCPRP,0.586
18,RRIRMRPPRLPRPRPRPYIQPRP,-1.05
19,RRIRQRPPRLPRPRPRPPMDPRP,-0.0321
20,RRIRLRPPRLPRPRPRPFQLPRP,-0.402
21,RRIRRRPPRLPRPRPRPALNPRP,0.248

# Source: the supplement of paper PMC9112550, “Optimization of the antimicrobial peptide Bac7 by deep mutational scanning” (BMC Biology, 2022)
